Test results: patent US7558625B2, “Combined micro-channel generation and iontophoresis for transdermal delivery of pharmaceutical agents” (TransPharma Medical Ltd., priority 2004, dated 2009)

Legend:
[1] = Transdermal delivery of hGH by ViaDerm and iontophoresis in anesthetized pigs, plasma hGH; format: in vivo; conditions: for hGH plasma levels: ViaDerm, Iontoph. × 5 Total 112.5 mg hGH
Protocol: ViaDerm applications were performed on 8 adjacent sites on the marginal ear of each of the pigs using 80 μm electrodes and 2 bursts.
2 groups of pigs (males, 10-15 kg, large white) were tested: • Group 1: SC (250 μg)—3 pigs (no. 3, 9 and 25). • Group 2: ViaDerm and then iontophoresis was applied 5 times, each iontophoresis patch contained 22.5 mg (22.5×5; total of 112.5 mg)—3 pigs (no. 19, 20 and 21). Results

[2] = Transdermal delivery of hGH by ViaDerm and iontophoresis in anesthetized rats, serum hGH (Elisa); format: in vivo; conditions: for Serum hGH levels: ViaDerm, Avg.; for AUC: serum hGH, 1.5 mg hGH patch
Protocol: Two groups of rats were tested. […] One group was connected to a power supply (constructed in house) and the other was not. The hGH loaded patch was connected to the negative pole of the power supply.
Rats (males, 300-325 gr, Sprague Dawley) were kept under anesthesia throughout the experiment. The following experimental groups were investigated: • Group 1—Passive delivery: 3 rats were treated with ViaDerm on two adjacent sites (total area 2.8 cm^2) over which the iontophoresis patch was placed. The reference electrode assembly was placed on a shaved intact skin on the back of the anal. The power supply was not turned on. • Group 2—Iontophoresis delivery: 3 rats were treated with ViaDerm on two adjacent sites (total area 2.8 cm^2) over which the iontophoresis patch was placed. The reference electrode assembly was placed on a shaved intact skin on the back of the animal. The power supply was turned on.
ViaDenm operating parameters: Burst length—700 μsec; Voltage—330V; Number of bursts—2; Two applications on the same skin area (150 pores/cm^2); Without current limitation; 80 μm diameter electrode arrays; Current density used: 0.18 mA/cm^2.
To detect hGH levels in serum—Elisa kit (DSL Inc. Webster, Tex., USA) was used.

[3] = pigs, ViaDerm and Iontophoresis group, 5 consecutive patches

Substance “hGH: human growth hormone (Genotropin, Pharmacia and Upjohn)” has a hGH plasma levels ([1]; pig19, 6 h) of 13.34 ng/mL, a hGH plasma levels ([1]; pig19, 7 h) of 9.63 ng/mL and a hGH plasma levels ([1]; pig19, 8 h) of 4.03 ng/mL. The hGH plasma levels ([1]; pig19, 9 h) was 4.08 ng/mL, the hGH plasma levels ([1]; pig19, 10 h) was 3.32 ng/mL and the hGH plasma levels ([1]; pig19, 11 h) was 1.42 ng/mL. It also gave a hGH plasma levels ([1]; pig19, 12 h) of 1.38 ng/mL, a hGH plasma levels ([1]; pig20, 0 h) of 0.06 ng/mL and a hGH plasma levels ([1]; pig20, 1 h) of 7.01 ng/mL. The hGH plasma levels ([1]; pig20, 2 h) was 22.45 ng/mL, the hGH plasma levels ([1]; pig20, 3 h) was 26.93 ng/mL and the hGH plasma levels ([1]; pig20, 4 h) was 31.04 ng/mL. It also gave a hGH plasma levels ([1]; pig20, 5 h) of 28.21 ng/mL, a hGH plasma levels ([1]; pig20, 6 h) of 22.09 ng/mL and a hGH plasma levels ([1]; pig20, 7 h) of 44.00 ng/mL. It also gave a hGH plasma levels ([1]; pig20, 8 h) of 10.69 ng/mL, a hGH plasma levels ([1]; pig20, 9 h) of 8.98 ng/mL and a hGH plasma levels ([1]; pig20, 10 h) of 6.49 ng/mL. For the same substance, the hGH plasma levels ([1]; pig20, 11 h) was 4.91 ng/mL, the hGH plasma levels ([1]; pig20, 12 h) was 5.01 ng/mL and the hGH plasma levels ([1]; pig21, 0 h) was 0.08 ng/mL. It also gave a hGH plasma levels ([1]; pig21, 1 h) of 2.68 ng/mL, a hGH plasma levels ([1]; pig21, 2 h) of 10.38 ng/mL and a hGH plasma levels ([1]; pig21, 3 h) of 24.52 ng/mL. For the same substance, the hGH plasma levels ([1]; pig21, 4 h) was 28.87 ng/mL, the hGH plasma levels ([1]; pig21, 5 h) was 44.93 ng/mL and the hGH plasma levels ([1]; pig21, 6 h) was 34.25 ng/mL. The hGH plasma levels ([1]; pig21, 7 h) was 33.54 ng/mL, the hGH plasma levels ([1]; pig21, 8 h) was 28.93 ng/mL and the hGH plasma levels ([1]; pig21, 9 h) was 24.89 ng/mL. The hGH plasma levels ([1]; pig21, 10 h) was 22.46 ng/mL, the hGH plasma levels ([1]; pig21, 11 h) was 17.86 ng/mL and the hGH plasma levels ([1]; pig21, 12 h) was 9.00 ng/mL. It also gave a hGH plasma levels ([1]; pigs, Average, 0 h) of 0.06 ng/mL, a hGH plasma levels ([1]; pigs, Average, 1 h) of 6.03 ng/mL and a hGH plasma levels ([1]; pigs, Average, 2 h) of 17.10 ng/mL. The hGH plasma levels ([1]; pigs, Average, 3 h) was 25.32 ng/mL, the hGH plasma levels ([1]; pigs, Average, 4 h) was 28.41 ng/mL and the hGH plasma levels ([1]; pigs, Average, 5 h) was 32.80 ng/mL. The hGH plasma levels ([1]; pigs, Average, 6 h) was 23.23 ng/mL, the hGH plasma levels ([1]; pigs, Average, 7 h) was 29.06 ng/mL and the hGH plasma levels ([1]; pigs, Average, 8 h) was 14.55 ng/mL. For the same substance, the hGH plasma levels ([1]; pigs, Average, 9 h) was 12.65 ng/mL, the hGH plasma levels ([1]; pigs, Average, 10 h) was 10.75 ng/mL and the hGH plasma levels ([1]; pigs, Average, 11 h) was 8.06 ng/mL. For the same substance, the hGH plasma levels ([1]; pigs, Average, 12 h) was 5.13 ng/mL, the “average AUC value” ([1]; pigs, SC group) was 90.3 ng·h/mL and the AUC [1, 3] was 210.3 ng·h/mL. The Cmax [1, 3] was 32.8 ng/mL, the Tmax [1, 3] was 5 to 7 h and the “skin irritation at the drug and the reference electrode” value ([1]; pigs, ViaDerm and Iontophoresis treated group) was “no irritation was observed”. The “AUC of ViaDerm and iontophoresis versus ViaDerm only (passive delivery)” value [2] was 3.5 fold, the “skin observation after removal of the iontophoretic patches” value ([2]; 0.18 mA/cm^2, end of experiment) was “burn marks were seen at the contact area of the electrode” and the “duration of hGH delivery” value ([2]; ViaDerm treated skin) was “more than 6 hours”. The “Serum hGH levels” value ([2]; Passive Patch 1.5 mg hGH, 0 h) was 0.1 ng/mL, the “Serum hGH levels” value ([2]; Passive Patch 1.5 mg hGH, 0.75 h) was 5.1 ng/mL and the “Serum hGH levels” value ([2]; Passive Patch 1.5 mg hGH, 1.5 h) was 14.0 ng/mL. For the same substance, the “Serum hGH levels” value ([2]; Passive Patch 1.5 mg hGH, 2.25 h) was 23.3 ng/mL, the “Serum hGH levels” value ([2]; Passive Patch 1.5 mg hGH, 3 h) was 40.8 ng/mL and the “Serum hGH levels” value ([2]; Passive Patch 1.5 mg hGH, 6 h) was 34.0 ng/mL. For the same substance, the “Serum hGH levels” value ([2]; Patch 1.5 mg hGH + Iontophoresis, 0 h) was 0.1 ng/mL, the “Serum hGH levels” value ([2]; Patch 1.5 mg hGH + Iontophoresis, 0.75 h) was 22.7 ng/mL and the “Serum hGH levels” value ([2]; Patch 1.5 mg hGH + Iontophoresis, 1.5 h) was 61.1 ng/mL. The “Serum hGH levels” value ([2]; Patch 1.5 mg hGH + Iontophoresis, 2.25 h) was 109.8 ng/mL, the “Serum hGH levels” value ([2]; Patch 1.5 mg hGH + Iontophoresis, 3 h) was 128.9 ng/mL and the “Serum hGH levels” value ([2]; Patch 1.5 mg hGH + Iontophoresis, 6 h) was 175.1 ng/mL. It also gave an AUC ([2]; ViaDerm and iontophoresis) of 637 ng·h/mL and an AUC ([2]; ViaDerm only (passive delivery)) of 182 ng·h/mL.
